Data on 14 molecules can be found in PMC12001967, “Different RNA recognition by ProQ and FinO depends on the sequence surrounding intrinsic terminator hairpins”.

The target of data set [1] is T1, ProQNTD (FinO domain of ProQ) (Escherichia coli, UniProt P45577 1-130).
T1 sequence: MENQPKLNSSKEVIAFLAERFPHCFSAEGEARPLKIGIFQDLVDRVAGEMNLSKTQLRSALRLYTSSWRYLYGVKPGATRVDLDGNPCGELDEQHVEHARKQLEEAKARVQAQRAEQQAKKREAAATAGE
Kind of data set: EMSA; 25 mM Tris-HCl pH 7.5, 150 mM NaCl, 5% glycerol, 1 mM MgCl2, 1 nM 32P-RNA, 30 min at room temperature; native 6% PAGE in 0.5x TBE at 4 C. The settings on record: protein: recombinant, tags: pET-15b construct, label: 32P.

Data set [2] has as its target T2, ProQ (Escherichia coli, UniProt P45577 1-232).
T2 sequence: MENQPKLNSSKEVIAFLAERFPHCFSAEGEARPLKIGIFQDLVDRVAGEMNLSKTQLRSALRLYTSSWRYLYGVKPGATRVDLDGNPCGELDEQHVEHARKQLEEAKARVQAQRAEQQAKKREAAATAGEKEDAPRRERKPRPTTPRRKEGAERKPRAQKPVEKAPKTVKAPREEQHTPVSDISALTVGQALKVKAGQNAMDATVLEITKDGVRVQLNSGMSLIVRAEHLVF
Described as above. The settings on record: protein: recombinant, tags: pET-15b construct, label: 32P.

Data set [3] has as its target T3, FinO (F-like plasmid (Escherichia coli), UniProt P29367 1-186).
T3 sequence: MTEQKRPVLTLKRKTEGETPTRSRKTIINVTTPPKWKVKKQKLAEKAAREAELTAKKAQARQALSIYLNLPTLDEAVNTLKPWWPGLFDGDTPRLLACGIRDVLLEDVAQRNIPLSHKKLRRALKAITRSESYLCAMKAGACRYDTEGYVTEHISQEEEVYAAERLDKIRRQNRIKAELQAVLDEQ
Kind of data set: EMSA; max bound 57%; 150 mM NaCl, 25 mM Tris-HCl pH 7.5, 5% glycerol, 1 mM MgCl2, 1 nM 32P-RNA, 30 min at room temperature; native 6% PAGE in 0.5x TBE at 4 C. The note with it: protein: recombinant; tags: His6-TEV site (ENLYFQ/S) N-terminal in the expression construct; label: 32P; terminator hairpin. For orientation: Mobility shift assays separate free from complexed probe on a gel.

Data set [4] has as its target T3, FinO. Kind of data set: EMSA; 25 mM Tris-HCl pH 7.5, 150 mM NaCl, 5% glycerol, 1 mM MgCl2, 1 nM 32P-RNA, 30 min at room temperature; native 6% PAGE in 0.5x TBE at 4 C. The settings on record: protein: recombinant, tags: His6-TEV site (ENLYFQ/S) N-terminal in the expression construct, label: 32P.
The target of data set [5] is T2, ProQ. Kind of data set: EMSA; max bound 85%; 150 mM NaCl, 25 mM Tris-HCl pH 7.5, 5% glycerol, 1 mM MgCl2, 1 nM 32P-RNA, 30 min at room temperature; native 6% PAGE in 0.5x TBE at 4 C. The settings on record: protein: recombinant; tags: pET-15b construct; label: 32P; terminator hairpin.
Data set [6] addresses T3, FinO. Kind of data set: EMSA; max bound 55%; 150 mM NaCl, 25 mM Tris-HCl pH 7.5, 5% glycerol, 1 mM MgCl2, 1 nM 32P-RNA, 30 min at room temperature; native 6% PAGE in 0.5x TBE at 4 C. The settings on record: protein: recombinant; tags: His6-TEV site (ENLYFQ/S) N-terminal in the expression construct; label: 32P; terminator hairpin.
Data set [7] addresses T2, ProQ. Kind of data set: EMSA; max bound 67%; 150 mM NaCl, 25 mM Tris-HCl pH 7.5, 5% glycerol, 1 mM MgCl2, 1 nM 32P-RNA, 30 min at room temperature; native 6% PAGE in 0.5x TBE at 4 C. The settings on record: protein: recombinant; tags: pET-15b construct; label: 32P; terminator hairpin.
Where [8] appears, read: terminator hairpin, 5' A4 paired with first four U of U8 tail.
Setting [9] is: terminator hairpin, A-G then C-A mismatch below, GAU4 tail.

Where a chain is given by its changes, count along the chain named. Names and notes keep the numbering of the source.

A word on the Kd: it is a measure of binding affinity in units of concentration.

B1: FinP-malM (structured_RNA)
RNA: GGAUACAUAGGAACCUCCUCACAAAGGAUUCUAUGGACUGUCGAUGCAGGGAGUUCACGUCUCCCUGCAUCGGCUUUUUUU
In the case of B1, the dissociation constant Kd in data set [1] (terminator hairpin) was 5.3 ± 1.5 nM; with ProQ [2] (terminator hairpin) it was 25 ± 6.7 nM; with FinO [3], 280 ± 110 nM.

B2: RepX (structured_RNA)
RNA: GCAUUGAUUGCCUCCUUUGCAGGCAGUUGGUGGUUAGGCGCUGGCGGGGUCACUACCCCCGCCCUGCGCCGCUCU
Consider B2, for which the dissociation constant (Kd) with FinO [4] (terminator hairpin, A-G mismatch below) came to 61 ± 23 nM.

B3: cspE81-3' (structured_RNA)
RNA: GGCCCUUCUGCUGCAAACGUAAUCGCUCUGUAAGAUACGUCAGCAAGAAUUCAAAACCCGCUUAAUCAGCGGGUUUUUUUU
As for B3, the results for the equilibrium dissociation constant (Kd) (in data set [1] (setting [8]); in the data set with ProQ [2] (setting [8])) were 2.4 ± 0.27 nM and 37 ± 7.1 nM, respectively.

B4: RepX-malM (structured_RNA)
RNA: GCAUUGAUUGCCUCCUUUGCAGGCAGUUGGUGGACUGGCGCUGGCGGGGUCACUACCCCCGCCCUGCGCCUUUUUUU
As to B4, the Kd in data set [1] (terminator hairpin) stood at 3.2 ± 1.6 nM; with FinO [4] (terminator hairpin), 150 ± 67 nM.

B5: malM-3' (structured_RNA)
RNA: GCUUUAUCAGCAGUGUAAAAGGCAAGGGGUAAUUACGCCCCACAGUGCUGAUUUUGCAACAACUGGUGCGUCUCCUGGCGCACCUUUUUUU
Regarding B5, the Kd in data set [1] (terminator hairpin, U7 tail) came to 5.8 ± 0.7 nM; with ProQ [2] (terminator hairpin, U7 tail) it was 27 ± 12 nM.

B6: malM-3' U64A;U85G;U86A (structured_RNA)
RNA: B5 RNA with U64A, U85G, U86A
With B6, the Kd with ProQ [2] came to 160 ± 30 nM; in the data set with FinO [4] it was 130 ± 18 nM.

B7: malM-3' U64A;U85G (structured_RNA)
RNA: B5 RNA with U64A, U85G
B7: the values for the dissociation constant Kd (in data set [1]; in the data set with FinO [4]) were 1.9 ± 0.59 nM and 150 ± 40 nM, respectively.

B8: malM-FinP (structured_RNA)
RNA: GCUUUAUCAGCAGUGUAAAAGGCAAGGGGUAAUUACGCCCCACAGUGCUGAUUUUGCAACAACAGGUGCGUCUCCUGGCGCACCGAUUUU
Turning to B8, the dissociation constant (Kd) with ProQ [2] (terminator hairpin) is 78 ± 22 nM; in the data set with FinO [4] (terminator hairpin) it was 86 ± 17 nM.

B9: FinP (structured_RNA)
RNA: GGAUACAUAGGAACCUCCUCACAAAGGAUUCUAUGGACAGUCGAUGCAGGGAGUUCACGUCUCCCUGCAUCGGCGAUUUU
As for B9, the Kd in data set [1] (setting [9]) was found to be 19 ± 6 nM; in the data set with ProQ [2] (setting [9]), 79 ± 18 nM; in the data set with FinO [4] (setting [9]) it was 110 ± 16 nM.

B10: FinP A39U;G75U (structured_RNA)
RNA: B9 RNA with A39U, G75U
For B10, the Kd in data set [1] is 6.2 ± 3.1 nM; with FinO [4] it was 200 ± 73 nM.

B11: FinP A39U;G75U;A76U (structured_RNA)
RNA: B9 RNA with A39U, G75U, A76U
Take B11: the Kd in data set [1] worked out at 9.4 ± 4.5 nM; with ProQ [2], 37 ± 5.4 nM; with FinO [4] it was 170 ± 45 nM.

B12: cspE81-FinP-stem (structured_RNA)
RNA: GGCCCUUCUGCUGCAAACGUAAUCGCUCUGUAAGAUACGUCAGCAAGAAUUCAACAGUCGCUUAAUCAGCGGCGAUUUU
Take B12: the Kd with ProQ [2] (terminator hairpin) was determined as 130 ± 34 nM; with FinO [4] (terminator hairpin), 56 ± 16 nM; in the data set with ProQ [5], 130 ± 34 nM.

B13: cspE81-FinP (structured_RNA)
RNA: B12 RNA with G57C, U58C, C73G
For the molecule B13, the dissociation constant (Kd) in data set [1] (terminator hairpin) worked out at 4.9 ± 0.32 nM; with FinO [4] (terminator hairpin), 88 ± 39 nM.

B14: malM-RepX (structured_RNA)
RNA: GCUUUAUCAGCAGUGUAAAAGGCAAGGGGUAAUUACGCCCCACAGUGCUGAUUUUGCAACAUUAGGUGCGUCUCCUGGCGCACCGCUCU
Regarding B14, the dissociation constant Kd came out at 61 ± 29 nM with ProQ [2] (terminator hairpin), 180 ± 93 nM with FinO [4] (terminator hairpin), 180 ± 93 nM with FinO [6] and 61 ± 29 nM with ProQ [7].
